Assays:
Assay in all cases: cell-based or functional assay
[1] = biological target: IL-23 receptor complex (IL-12Rβ1, IL-23R) (UniProt P42701)
[2] = biological target: T1, IFN-γ receptor (IFNGR1, IFNGR2) (UniProt P15260)
T1 sequence (looked up) 1: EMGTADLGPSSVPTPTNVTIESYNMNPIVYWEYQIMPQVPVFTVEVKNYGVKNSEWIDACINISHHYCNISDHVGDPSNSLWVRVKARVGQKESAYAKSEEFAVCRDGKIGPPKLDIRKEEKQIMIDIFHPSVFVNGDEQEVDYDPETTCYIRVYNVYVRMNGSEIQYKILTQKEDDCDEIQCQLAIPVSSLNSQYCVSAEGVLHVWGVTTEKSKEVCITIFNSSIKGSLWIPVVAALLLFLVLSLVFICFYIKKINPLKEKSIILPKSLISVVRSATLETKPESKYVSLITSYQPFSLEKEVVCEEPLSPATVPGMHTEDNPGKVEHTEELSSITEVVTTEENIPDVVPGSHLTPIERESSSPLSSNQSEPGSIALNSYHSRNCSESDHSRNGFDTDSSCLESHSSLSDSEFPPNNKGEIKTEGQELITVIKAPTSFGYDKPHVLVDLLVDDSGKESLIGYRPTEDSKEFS
T1 sequence (looked up) 2: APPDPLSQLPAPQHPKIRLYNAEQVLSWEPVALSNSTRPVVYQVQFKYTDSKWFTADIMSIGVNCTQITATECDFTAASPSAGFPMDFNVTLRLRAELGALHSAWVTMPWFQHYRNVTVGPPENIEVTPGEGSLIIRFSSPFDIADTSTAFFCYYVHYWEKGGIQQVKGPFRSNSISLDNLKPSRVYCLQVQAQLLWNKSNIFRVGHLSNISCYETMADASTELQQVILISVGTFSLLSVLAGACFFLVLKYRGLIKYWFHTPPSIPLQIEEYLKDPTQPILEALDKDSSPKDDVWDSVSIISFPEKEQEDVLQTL

[3] = biological target: human IL-12 receptor complex (IL-12Rβ1, IL-12Rβ2) (human) (UniProt P42701)
[4] = biological target: human IL-10 receptor (hIL-10Rα, hIL-10Rβ) (human) (UniProt Q13651)
Sequence of human IL-10 receptor (hIL-10Rα, hIL-10Rβ) (human) (Q13651 22-578, chain 1 of 2): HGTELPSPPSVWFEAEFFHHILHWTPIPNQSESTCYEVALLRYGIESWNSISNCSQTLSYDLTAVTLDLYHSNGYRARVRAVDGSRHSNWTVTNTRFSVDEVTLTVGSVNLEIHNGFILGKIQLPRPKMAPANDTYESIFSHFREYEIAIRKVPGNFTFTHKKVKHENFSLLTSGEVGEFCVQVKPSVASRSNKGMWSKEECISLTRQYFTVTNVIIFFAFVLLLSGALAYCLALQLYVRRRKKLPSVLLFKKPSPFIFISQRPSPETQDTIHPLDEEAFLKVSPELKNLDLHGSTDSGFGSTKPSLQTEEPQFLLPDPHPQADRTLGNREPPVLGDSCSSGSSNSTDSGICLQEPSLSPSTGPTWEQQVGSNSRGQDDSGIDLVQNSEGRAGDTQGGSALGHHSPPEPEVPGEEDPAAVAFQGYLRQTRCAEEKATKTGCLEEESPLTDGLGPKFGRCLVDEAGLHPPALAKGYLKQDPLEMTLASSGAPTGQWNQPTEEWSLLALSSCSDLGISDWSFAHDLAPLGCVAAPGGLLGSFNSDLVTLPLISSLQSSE
Sequence of human IL-10 receptor (hIL-10Rα, hIL-10Rβ) (human) (Q08334 20-325, chain 2 of 2, further chain): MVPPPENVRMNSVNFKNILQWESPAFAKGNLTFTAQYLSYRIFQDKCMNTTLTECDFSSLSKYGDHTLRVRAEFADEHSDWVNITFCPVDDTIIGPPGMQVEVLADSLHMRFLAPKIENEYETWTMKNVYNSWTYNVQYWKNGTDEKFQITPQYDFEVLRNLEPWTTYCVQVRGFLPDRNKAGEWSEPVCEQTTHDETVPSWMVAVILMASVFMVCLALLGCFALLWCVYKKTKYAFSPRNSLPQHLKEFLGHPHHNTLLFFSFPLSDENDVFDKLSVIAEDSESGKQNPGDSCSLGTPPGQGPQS

Sequence of human IL-12 receptor complex (IL-12Rβ1, IL-12Rβ2) (human) (Q99665 24-862, chain 2 of 2, other chains not shown): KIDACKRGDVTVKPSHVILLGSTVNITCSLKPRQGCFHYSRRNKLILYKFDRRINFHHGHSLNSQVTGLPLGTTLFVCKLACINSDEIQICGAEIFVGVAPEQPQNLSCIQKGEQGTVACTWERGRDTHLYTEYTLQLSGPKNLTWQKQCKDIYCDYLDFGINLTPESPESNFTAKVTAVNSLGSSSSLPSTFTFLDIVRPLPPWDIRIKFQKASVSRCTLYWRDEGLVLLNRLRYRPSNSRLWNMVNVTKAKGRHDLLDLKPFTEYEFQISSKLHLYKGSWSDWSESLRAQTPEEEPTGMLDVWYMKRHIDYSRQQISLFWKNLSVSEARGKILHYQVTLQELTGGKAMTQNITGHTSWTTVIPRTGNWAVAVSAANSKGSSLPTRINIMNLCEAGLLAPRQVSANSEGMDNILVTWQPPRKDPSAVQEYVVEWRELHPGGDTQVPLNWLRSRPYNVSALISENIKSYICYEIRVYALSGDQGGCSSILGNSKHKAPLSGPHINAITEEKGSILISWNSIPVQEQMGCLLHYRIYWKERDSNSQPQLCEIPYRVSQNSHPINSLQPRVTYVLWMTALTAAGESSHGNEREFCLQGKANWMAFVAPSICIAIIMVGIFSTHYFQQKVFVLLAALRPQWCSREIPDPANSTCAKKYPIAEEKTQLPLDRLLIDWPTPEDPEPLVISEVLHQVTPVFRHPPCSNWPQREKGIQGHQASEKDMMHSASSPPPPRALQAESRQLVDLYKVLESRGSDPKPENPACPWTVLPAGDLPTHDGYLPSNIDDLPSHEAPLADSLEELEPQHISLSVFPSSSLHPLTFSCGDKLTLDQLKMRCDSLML
Sequence of recombinant human IL-12 (free state) (P29460 23-328 limits assumed): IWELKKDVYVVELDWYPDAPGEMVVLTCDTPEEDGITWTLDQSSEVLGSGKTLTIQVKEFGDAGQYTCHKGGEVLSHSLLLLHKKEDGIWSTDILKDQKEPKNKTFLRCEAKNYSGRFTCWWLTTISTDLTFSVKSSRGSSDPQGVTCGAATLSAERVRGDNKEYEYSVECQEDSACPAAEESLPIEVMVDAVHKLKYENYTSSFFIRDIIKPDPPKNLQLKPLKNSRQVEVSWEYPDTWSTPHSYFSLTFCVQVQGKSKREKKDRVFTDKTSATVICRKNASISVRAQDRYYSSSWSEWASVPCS
Sequence of recombinant human IL-12 (free state) (P29459 23-219 limits assumed): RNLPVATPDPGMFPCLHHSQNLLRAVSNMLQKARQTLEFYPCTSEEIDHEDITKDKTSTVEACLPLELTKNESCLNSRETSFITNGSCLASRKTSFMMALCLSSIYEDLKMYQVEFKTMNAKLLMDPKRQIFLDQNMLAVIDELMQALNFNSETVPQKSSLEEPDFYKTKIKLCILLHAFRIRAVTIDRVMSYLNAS
Sequence of recombinant human IL-23 (free state) (P29460 23-328 limits assumed): as the sequence (P29460 23-328 limits assumed) above
Sequence of recombinant human IL-23 (free state) (Q9NPF7 20-189 limits assumed): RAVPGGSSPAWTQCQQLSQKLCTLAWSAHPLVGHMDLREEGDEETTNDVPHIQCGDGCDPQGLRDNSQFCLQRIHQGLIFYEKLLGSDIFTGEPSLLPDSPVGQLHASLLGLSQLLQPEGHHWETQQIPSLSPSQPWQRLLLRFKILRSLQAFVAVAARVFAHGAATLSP
Sequence of recombinant human IFN-γ (free state) (P01579 24-166 limits assumed): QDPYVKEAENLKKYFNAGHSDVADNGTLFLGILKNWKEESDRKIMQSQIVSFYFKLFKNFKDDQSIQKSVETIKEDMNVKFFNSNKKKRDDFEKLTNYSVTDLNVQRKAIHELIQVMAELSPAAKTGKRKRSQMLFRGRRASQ
Sequence of IL-23 receptor complex (IL-12Rβ1, IL-23R) (Q5VWK5 24-629 limits assumed, chain 2 of 2, other chains not shown): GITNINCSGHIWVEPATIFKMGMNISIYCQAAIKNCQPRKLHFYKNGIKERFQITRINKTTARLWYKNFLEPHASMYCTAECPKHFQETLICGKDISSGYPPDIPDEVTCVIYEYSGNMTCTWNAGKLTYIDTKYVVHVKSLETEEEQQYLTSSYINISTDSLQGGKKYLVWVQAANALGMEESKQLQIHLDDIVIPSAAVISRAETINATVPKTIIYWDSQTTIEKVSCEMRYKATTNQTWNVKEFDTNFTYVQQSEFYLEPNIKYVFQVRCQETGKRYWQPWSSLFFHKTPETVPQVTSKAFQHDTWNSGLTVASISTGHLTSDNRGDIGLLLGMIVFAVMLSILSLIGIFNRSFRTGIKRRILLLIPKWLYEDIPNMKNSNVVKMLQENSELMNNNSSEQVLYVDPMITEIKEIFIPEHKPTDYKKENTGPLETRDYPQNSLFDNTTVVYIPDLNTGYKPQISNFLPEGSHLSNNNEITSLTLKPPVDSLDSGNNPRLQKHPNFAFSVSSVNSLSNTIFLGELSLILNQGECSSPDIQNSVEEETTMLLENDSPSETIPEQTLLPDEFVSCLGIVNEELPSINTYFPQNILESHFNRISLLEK

Substance: recombinant human IL-23 (free state) (from UniProt P29460 23-328; Q9NPF7 20-189) (ligand)
- IL-23 biological activity (IFN-γ release), CD4+ T cells [1]: 100%
- IL-23 biological activity (IFN-γ release), CD8+ T cells [1]: 100%
- IL-23 biological activity, HEK-IL-23 cells [1]: 100%
- IL-23 biological activity, HEK-PD-1-IL-23 cells [1]: 100%

Substance: recombinant human IFN-γ (free state) (from UniProt P01579 24-166) (ligand)
- IFN-γ biological activity, HEK-IFN-γ cells [2]: 100%
- IFN-γ biological activity, HEK-PD-1-IFN-γ cells [2]: 100%
- PD-L1 expression (anti-PD-L1 APC, FACS), HEK-CD4-IFN-γ cells [2]: 67 MFI
- PD-L1 expression (anti-PD-L1 APC, FACS), HEK-IFN-γ cells [2]: 75 MFI

Substance: recombinant human IL-12 (free state) (from UniProt P29460 23-328; P29459 23-219) (ligand)
- IL-12 biological activity (IFN-γ release), CD4+ T cells [3]: 100%
- IL-12 biological activity (IFN-γ release), CD8+ T cells [3]: 100%
- IL-12 biological activity, HEK-IL-12 [3]: 100%
- IL-12 biological activity, HEK-IL-12-PD-1 [3]: 100%
- IL-12 biological activity, HEK-IL-12-PD-1 (high) [3]: 100%
- IL-12 biological activity, HEK-IL-12-PD-1 (low) [3]: 100%
- IL-12 biological activity, HEK-IL-12 cells [3]: 100%
- IL-12 biological activity, HEK-PD-1-IL-12 [3]: 100%
- IL-12 biological activity, HEK-PD-1-IL-12 cells [3]: 100%
- PBMC (IFN-γ ng/ml) [3]: 2300 ng/mL

Substance: recombinant human IL-10 (free state) (from UniProt P22301 19-178) (ligand)
- IL-10 biological activity, HEK-IL-10 cells [4]: 100%
- IL-10 biological activity, HEK-PD-1-IL-10 cells [4]: 100%
